The results in this text go back to patent US20250129143A1 (TOKYO METROPOLITAN INSTITUTE OF MEDICAL SCIENCE, published 2025).

The target of test [1] is T1, biotinylated ubiquitin (human-derived ubiquitin with C-terminal Cys residue and 6xHis tag, biotin on the Cys) (human, UniProt P0CG48 1-76, biotin tag (EZ-Link Maleimide-PEG11-Biotin) on the added C-terminal Cys residue).
T1 construct: mature; Construct pET21a-hUb-Cys-His6; also called hUb-Cys-His6; biotin-labeled ubiquitin monomer
As to the kind of experiment: BLI; biotinylated ubiquitin on streptavidin sensor, Monobody-Nus-His6 as analyte. (In general: Biolayer interferometry detects binding as a change in optical thickness at a sensor tip.)

The next test addresses T2, M1 (human).
T2 construct: quantified through the peptide GGM[Oxid]QIFVK; also called M1 chain; M1-linked ubiquitin chain
As to the kind of experiment: immunoprecipitation from HCT-116 cell extract; quantitative mass spectrometry; pie chart [panel B]. From the text:
(§1) FIG. 7 is a view showing the results of quantitative mass spectrometry analysis of immunoprecipitates. […] The immunoprecipitates subjected to FIG. 5C were electrophoresed, and high molecular weight regions (62 kDa or more) were subjected to quantitative mass spectrometry analysis. A stable isotope-labeled ubiquitin-derived peptide (name: EST) as an internal standard and 8 types of ubiquitin chain-derived peptides (names: K6, K11, K27, K29, K33, K48, K63, and M1) were used, and the quantification values (fmol) were described. Since the EST peptide sequence overlaps with the K63 chain peptide sequence, the total ubiquitin value was calculated by adding the value of the K63 chain-derived peptide to the quantitative value of the EST peptide. The total amount of ubiquitin contained in the ubiquitin monobody immunoprecipitates was confirmed to be higher than that of FK2 or P4D1. […] The value of the control is subtracted from the value of each antibody, a total value of the 8 types of ubiquitin chain-derived peptides is set at 100%, and the percentage of each ubiquitin chain is shown as a pie chart.
(§2) The above-described immunoprecipitate was electrophoresed on 4%-12% NuPAGE Bis-Tris gels (Thermo Fisher Scientific) in MES buffer (Thermo Fisher Scientific) for about 2 cm, and was then stained with CBB (Bio-Safe Commassie, Bio-Rad). After the gel was washed with Milli-Q water, a gel of 62 kDa or more was cut out using a molecular weight marker as an indicator, and the gel was cut into 1 mm squares. The gel pieces were collected in an Eppendorf tube and were washed with 50 mM ammonium bicarbonate and 30% acetonitrile (ACN) for 2 hours, and then with 50 mM ammonium bicarbonate and 50% ACN for 1 hour, and were dehydrated in 100% ACN for 15 minutes. Subsequently, a trypsin solution (20 ng/ml Trypsin Gold, Promega, 50 mM ammonium bicarbonate, and 5% ACN) was added to the resultant, which was then digested at 37° C. overnight.

In a further test the target is T3, K48 (human).
T3 construct: quantified through the peptide LIFAGK[di-GlyGly]QLEDGR; also called K48 chain; K48-linked ubiquitin chain
Described as above.
Description: as §1, §2

The target in another test is T4, K29 (human).
T4 construct: quantified through the peptide AK[di-GlyGly]IQDK; also called K29 chain; K29-linked ubiquitin chain
Described as above.
Description: as §1, §2

The target in a further test is T5, K11 (human).
T5 construct: also called K11 chain; K11-linked ubiquitin chain
The description is as above.
Description: as §1, §2

The target in another test is T6, K6 (human).
T6 construct: quantified through the peptide M[Oxid]QIFVK[di-GlyGly]TLTGK; also called K6 chain; K6-linked ubiquitin chain
The description is as above.
Description: as §1, §2

Another test deals with T7, K33 (human).
T7 construct: also called K33 chain; K33-linked ubiquitin chain
The test is described as above.
Description: as §1, §2

Another test deals with T8, K63 (human).
T8 construct: also called K63 chain; K63-linked ubiquitin chain
Described as above.
Description: as §1, §2

In the next test the target is T9, K27 (human).
T9 construct: also called K27 chain; K27-linked ubiquitin chain
The test is described as above.
Description: as §1, §2

B1: anti-ubiquitin monobody clone A, Monobody-Nus tag-His6 recombinant protein (designed binder)
chain: LEVVEASPTSIQISWDAYPYYIIGETVRYYRITYGETGGNSPVQEFTVPGSKSTATISGLKPGVDYTITVYAVTYYGNAFWGWPPISINYRTHHHHHH
notes: Fibronectin type III monobody fused from the N-terminus to Nus tag and His6, made in E. coli; also called Ub monobody; not shown: Nus tag for solubilization
B1: binding in [1] was characterised by a dissociation constant (Kd) of 1.1 nM.

B2: Halo tag-fused anti-ubiquitin monobody (His6-Halo tag-TEV recognition sequence-GGGS-monobody, clone C) (designed binder)
chain: HHHHHHGGGSLEVVEASPTSIQISWDAASFGFTHMDKVRYYRITYGETGGNSPVQEFTVPGSKSTATISGLKPGVDYTITVYAVTWYAYSYWGWPPISINYRT
notes: Immobilized on Magne HaloTag Beads; also called Ub monobody; Halo tag-fused monobody; not shown: Halo tag
For B2, the “percentage of this chain among the 8 ubiquitin chain-derived peptides in the immunoprecipitate (control subtracted)” value worked out at 0% in the test with M1; 61% with K48; 10% in the test with K29; 6% with K11; 4% in the test with K6; 0% with K33. Also, the figures for the “percentage of this chain among the 8 ubiquitin chain-derived peptides in the immunoprecipitate (control subtracted)” value with K63 and in the test with K27 were 19% and 0%, respectively.

B3: anti-ubiquitin monobody clone E, Monobody-Nus tag-His6 recombinant protein (designed binder)
chain: LEVVEASPTSIQISWDANIYSVGQGEYVRYYRITYGETGGNSPVQEFTVPGSKSTATISGLKPGVDYTITVYAVTEYSYMYWGWPPISINYRTHHHHHH
notes: Monobody, Nus tag and His6 fused from the N-terminus; also called Ub monobody; not shown: Nus tag for solubilization
As for B3, binding in test [1] was put at a Kd of 1.2 nM.
